According to the supplement of paper PMC9112550, “Optimization of the antimicrobial peptide Bac7 by deep mutational scanning” (BMC Biology, 2022):

System: Escherichia coli TOP10
Experiment: shrunken log2 fold change of peptide-encoding DNA abundance (4.5 h post-induction vs induction); higher = less antimicrobial activity (less host growth inhibition)
Settings: time post-induction: 4.5 h; library: site-saturation at positions 5, 18, 19, 20
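Also: peptides expressed intracellularly from a pBAD plasmid library in pooled LB shake-flask culture, induced with 0.3% L-arabinose, DNA abundance read by NGS, three biological replicates, DESeq2 with apeglm shrinkage.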

Sequence	shrunken log2 fold change
RRIRDRPPRLPRPRPRPKLGPRP	-0.000429
RRIRWRPPRLPRPRPRPAFSPRP	0.383
RRIRSRPPRLPRPRPRPGFRPRP	0.165
RRIRLRPPRLPRPRPRPILEPRP	-0.186
RRIRCRPPRLPRPRPRPNGMPRP	-0.398
RRIRYRPPRLPRPRPRPHPHPRP	-0.744
RRIRGRPPRLPRPRPRPIMPPRP	0.0639
RRIRVRPPRLPRPRPRPYHAPRP	-0.00207
RRIRSRPPRLPRPRPRPTIGPRP	0.0365
RRIRARPPRLPRPRPRPHCFPRP	0.36
RRIRPRPPRLPRPRPRPQRSPRP	0.265
RRIRVRPPRLPRPRPRPNLEPRP	0.0543
RRIRERPPRLPRPRPRPYCLPRP	-0.123
RRIRIRPPRLPRPRPRPMGHPRP	-0.174
RRIRYRPPRLPRPRPRPWVDPRP	-0.445
RRIRWRPPRLPRPRPRPVSYPRP	-0.131
RRIRVRPPRLPRPRPRPCHSPRP	-0.225
RRIRPRPPRLPRPRPRPPKSPRP	0.177
RRIRKRPPRLPRPRPRPHSPPRP	0.16
RRIRVRPPRLPRPRPRPHLMPRP	-0.36
RRIRLRPPRLPRPRPRPFMWPRP	-0.121
RRIRIRPPRLPRPRPRPGTGPRP	0.0659
RRIRQRPPRLPRPRPRPCMTPRP	0.0109
RRIRGRPPRLPRPRPRPNLVPRP	0.0862
RRIRMRPPRLPRPRPRPFHDPRP	-0.14

Sequence	shrunken log2 fold change
RRIRTRPPRLPRPRPRPVREPRP	0.139
RRIRTRPPRLPRPRPRPSPQPRP	-0.133
RRIRTRPPRLPRPRPRPLTGPRP	-0.0139
RRIRPRPPRLPRPRPRPEMMPRP	0.00381
RRIRARPPRLPRPRPRPGACPRP	0.783
RRIRMRPPRLPRPRPRPYDDPRP	-0.00329
RRIRMRPPRLPRPRPRPHTHPRP	-0.00443
RRIRPRPPRLPRPRPRPKYVPRP	-0.132
RRIRIRPPRLPRPRPRPATEPRP	0.421
RRIRKRPPRLPRPRPRPADYPRP	-0.0391
RRIRVRPPRLPRPRPRPDGSPRP	-0.0225
RRIRVRPPRLPRPRPRPVVKPRP	-0.214
RRIRSRPPRLPRPRPRPGEHPRP	0.0053
RRIRIRPPRLPRPRPRPLGDPRP	-0.0585
RRIRPRPPRLPRPRPRPIRRPRP	-0.0359
RRIRTRPPRLPRPRPRPPCGPRP	0.4
RRIRARPPRLPRPRPRPQAKPRP	0.0548
RRIRIRPPRLPRPRPRPKFTPRP	-0.8
RRIRHRPPRLPRPRPRPDSLPRP	-0.0392
RRIRFRPPRLPRPRPRPKVSPRP	0.00612
RRIRKRPPRLPRPRPRPEHIPRP	0.0147
RRIRHRPPRLPRPRPRPRSYPRP	-0.12
RRIRTRPPRLPRPRPRPGMIPRP	-0.0261
RRIRIRPPRLPRPRPRPLNQPRP	-0.195
RRIRKRPPRLPRPRPRPEYNPRP	0.196

Sequence	shrunken log2 fold change
RRIRSRPPRLPRPRPRPCVVPRP	-0.266
RRIRIRPPRLPRPRPRPWDPPRP	-0.0252
RRIRERPPRLPRPRPRPHNRPRP	-0.0587
RRIRIRPPRLPRPRPRPSWKPRP	-0.242
RRIRLRPPRLPRPRPRPMAAPRP	0.627
RRIRDRPPRLPRPRPRPFCSPRP	0.217
RRIRQRPPRLPRPRPRPNWPPRP	0.192
RRIRLRPPRLPRPRPRPHWYPRP	-0.128
RRIRARPPRLPRPRPRPCMSPRP	0.19
RRIRSRPPRLPRPRPRPTEDPRP	0.14
RRIRDRPPRLPRPRPRPAWHPRP	0.2
RRIRERPPRLPRPRPRPGFEPRP	-0.1
RRIRARPPRLPRPRPRPMGGPRP	0.0776
RRIRARPPRLPRPRPRPWKRPRP	0.125
RRIRSRPPRLPRPRPRPNHQPRP	-0.139
RRIRWRPPRLPRPRPRPKRGPRP	0.239
RRIRSRPPRLPRPRPRPGGCPRP	0.304
RRIRKRPPRLPRPRPRPLQYPRP	-0.0563
RRIRDRPPRLPRPRPRPQWTPRP	0.448
RRIRRRPPRLPRPRPRPRDRPRP	0.713
RRIRARPPRLPRPRPRPQDGPRP	0.214
RRIRSRPPRLPRPRPRPLGQPRP	-0.0571
RRIRARPPRLPRPRPRPKRSPRP	0.427
RRIRMRPPRLPRPRPRPRSSPRP	0.923
RRIRHRPPRLPRPRPRPCWGPRP	-0.137

Sequence	shrunken log2 fold change
RRIRMRPPRLPRPRPRPHKVPRP	0.14
RRIRVRPPRLPRPRPRPMYKPRP	-0.608
RRIRFRPPRLPRPRPRPVVYPRP	-0.127
RRIRSRPPRLPRPRPRPWGAPRP	0.0522
RRIRKRPPRLPRPRPRPGRMPRP	0.554
RRIRIRPPRLPRPRPRPPNPPRP	0.765
RRIRCRPPRLPRPRPRPNCLPRP	-0.19
RRIRERPPRLPRPRPRPFCDPRP	0.211
RRIRIRPPRLPRPRPRPFKCPRP	0.000802
RRIRFRPPRLPRPRPRPQWVPRP	-0.053
RRIRNRPPRLPRPRPRPNFQPRP	-0.0807
RRIRDRPPRLPRPRPRPPWFPRP	0.336
RRIRERPPRLPRPRPRPIKFPRP	-0.0529
RRIRIRPPRLPRPRPRPQACPRP	0.126
RRIRERPPRLPRPRPRPIFAPRP	0.21
RRIRTRPPRLPRPRPRPQWHPRP	-0.461
RRIRWRPPRLPRPRPRPMCGPRP	0.205
RRIRKRPPRLPRPRPRPHIQPRP	-0.224
RRIRKRPPRLPRPRPRPTPTPRP	0.831
RRIRRRPPRLPRPRPRPRCRPRP	1.57
RRIRSRPPRLPRPRPRPKIGPRP	-0.0115
RRIRGRPPRLPRPRPRPWANPRP	0.0528
RRIRSRPPRLPRPRPRPNNEPRP	-0.631
RRIRARPPRLPRPRPRPHGDPRP	0.362
RRIRFRPPRLPRPRPRPNERPRP	0.047

Sequence	shrunken log2 fold change
RRIRFRPPRLPRPRPRPVPVPRP	0.143
RRIRVRPPRLPRPRPRPIWMPRP	-0.0796
RRIRQRPPRLPRPRPRPEDKPRP	0.0591
RRIRKRPPRLPRPRPRPSMQPRP	0.293
RRIRNRPPRLPRPRPRPEASPRP	0.0343
RRIRNRPPRLPRPRPRPVWQPRP	0.285
RRIRCRPPRLPRPRPRPCIPPRP	-0.01
RRIRHRPPRLPRPRPRPADDPRP	0.083
RRIRSRPPRLPRPRPRPMDPPRP	0.00928
RRIRSRPPRLPRPRPRPPWAPRP	0.643
RRIRMRPPRLPRPRPRPWMHPRP	-0.128
RRIRCRPPRLPRPRPRPFCLPRP	-0.327
RRIRDRPPRLPRPRPRPHRRPRP	-0.247
RRIRERPPRLPRPRPRPDQWPRP	0.189
RRIRRRPPRLPRPRPRPSMDPRP	0.0821
RRIRVRPPRLPRPRPRPFTNPRP	-0.0456
RRIRIRPPRLPRPRPRPTARPRP	0.0575
RRIRLRPPRLPRPRPRPFWCPRP	-0.0123
RRIRMRPPRLPRPRPRPPMFPRP	0.225
RRIRERPPRLPRPRPRPMIYPRP	-0.12
RRIRTRPPRLPRPRPRPSILPRP	-0.781
RRIRNRPPRLPRPRPRPYKDPRP	0.0141
RRIRCRPPRLPRPRPRPSRYPRP	-0.285
RRIRTRPPRLPRPRPRPGALPRP	0.00437
RRIRRRPPRLPRPRPRPMVNPRP	-0.0292
